Source: patent US5998142

Key:
[1] = target: T1, neutrophil elastase (hNE) (Homo sapiens) (UniProt P08246); experiment: inhibition
T1 sequence: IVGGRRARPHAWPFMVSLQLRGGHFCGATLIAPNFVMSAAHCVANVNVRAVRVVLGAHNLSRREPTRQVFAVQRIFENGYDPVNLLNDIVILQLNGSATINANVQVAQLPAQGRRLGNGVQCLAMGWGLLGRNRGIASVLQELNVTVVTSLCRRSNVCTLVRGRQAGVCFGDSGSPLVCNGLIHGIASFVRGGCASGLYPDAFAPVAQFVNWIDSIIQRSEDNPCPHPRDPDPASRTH

[2] = target: bradykinin, N-bromoacetylated (BrBK) (UniProt P01042); details: 5'-GMPS (5' guanosine monophosphorothioate)
Sequence of bradykinin, N-bromoacetylated (BrBK) (P01042 whole entry, looked up): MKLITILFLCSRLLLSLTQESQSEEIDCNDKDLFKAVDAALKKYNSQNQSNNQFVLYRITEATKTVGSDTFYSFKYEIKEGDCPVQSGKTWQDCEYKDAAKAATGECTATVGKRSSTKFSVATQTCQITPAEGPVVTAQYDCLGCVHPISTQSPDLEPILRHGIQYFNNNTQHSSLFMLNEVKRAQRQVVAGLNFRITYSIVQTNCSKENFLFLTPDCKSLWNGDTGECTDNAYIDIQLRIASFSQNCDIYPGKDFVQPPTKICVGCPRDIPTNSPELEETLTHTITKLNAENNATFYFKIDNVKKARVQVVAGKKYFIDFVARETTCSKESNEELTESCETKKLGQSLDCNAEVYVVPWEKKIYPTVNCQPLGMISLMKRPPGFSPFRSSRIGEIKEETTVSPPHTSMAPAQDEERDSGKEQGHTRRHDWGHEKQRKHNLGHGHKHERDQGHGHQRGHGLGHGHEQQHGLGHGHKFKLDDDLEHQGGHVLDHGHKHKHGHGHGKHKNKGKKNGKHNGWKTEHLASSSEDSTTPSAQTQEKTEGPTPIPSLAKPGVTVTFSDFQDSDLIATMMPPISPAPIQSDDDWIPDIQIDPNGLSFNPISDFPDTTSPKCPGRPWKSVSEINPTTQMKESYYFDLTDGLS

GGGAGGACGAUGCGGNNNNNNNNNNNNNNNNNNNNNNNNNNNNNNNNNNNNNNNNCAGACGACGAGCGGGA [40N7.1 rd0 RNA:DNA:valP]
activity ([1]; 2'-NH2 U and C, kinact/[I], unit not given, pool, 37 C): 290000

GGGAGGACGATGCGGCAGNNGGNNCAGGTAATGTGAGTAACCTCTACTACTCTGCAGACGACGAGCGGGA [ED15]
activity ([1]; kinact/KI, room temperature): 4.8e+08 M⁻¹ min⁻¹

GGGAGGACGAUGCGGNNNNNNNNNNNNNNNNNNNNNNNNNNNNNNNNNNNNNNNNCAGACGACGAGCGGGA [40N7.1 ssDNA pool]
activity ([1]; kinact/KI, pool, room temperature): 1.86e+06 M⁻¹ min⁻¹

GGGAGCUCAGAAUAAACGCUCAANNNNNNNNNNNNNNNNNNNNNNNNNNNNNNUUCGACAUGAGGCCCGGAUCCGGC [30N1 pool]
K half [2]: 13 mM

GGGAGGACGATGCGGACCACAGCCACTAGNNGCATCGTCCTCTGCGTCCAGACGACGAGCGGGA [ED21]
activity ([1]; kinact/KI, room temperature): 3.2e+06 M⁻¹ min⁻¹
